Laboratory results taken from patent US20220396632A1 (VERSEAU THERAPEUTICS, published 2022).
Residue numbers refer to the chain shown, from its start.

T1: Scrambled Y42,52,63(SO3) PSGL-1(42-62) biotin peptide (sulfotyrosine at peptide positions 1, 11 and 22; C-terminal Lys-biotin)
T1 peptide: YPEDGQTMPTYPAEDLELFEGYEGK

T2: Biotin PSGL-1(42-62) peptide, unmodified (human, C-terminal Lys-biotin)
T2 construct: Residues 42-62 followed by GGGK-biotin; also called WT; wild-type
T2 peptide: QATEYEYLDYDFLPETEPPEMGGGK

T3: Biotin Y46,48,51(SO3) PSGL-1(42-62) peptide (human, sulfotyrosine at Y46, Y48 and Y51; C-terminal Lys-biotin)
T3 construct: also called fully sulfated N-terminal PSGL-1 peptide
T3 peptide: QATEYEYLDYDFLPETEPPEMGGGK

B1: 06C04 (antibody, IgG4, V domains shown)
VH: EVQLVESGGGLVQPGGSLRLSCAASGFTFSDHYMDWVRQAPGKGLEWVGRSRNKVKSYTTAYAASVEGRITISRDDSKNSLYLEMNSLKTEDTAVYYCVRVRWGGAFDIWGQGTMVTVSS
VL: QPVLTQPPSASGSPGQSVTISCTGTSSDVGGYNYVSWYQQHPGKAPKLMIYEVSKRPSGVPDRFSGSKSGNTASLTVSGLQAEDEADYYCSSYAGSNNLRVFGGGTKLTVL
B2: 09A08 (antibody, IgG4, V domains shown)
VH: QVQLVQSGAAVKKPGESLKISCKGSGYTFSNYWIGWVRQMPGKGLEWMGIIYPGDSDTRYSPSFQGQVTISADKSISTAYLQWSSLKASDTAMYYCARHIVGPPKSAFDIWGQGTMVTVSS
VL: DIVMTQTPLSLPVTLGQPASISCSSSQGLQKRDGNTYLNWFQQRPGQSPRRLIYKVSNRDSGVPDRFSGSGSGTDFTLKISRVEAEDVGVYYCMQGTHWPWTFGQGTRVEIK
B3: 07E07 (antibody, IgG4, V domains shown)
VH: QVQLQQSGAEVKKPGASVKVSCKASGYTFTSYYMHWVRQAPGQGLEWMGIINTSSGSTKYAQRFQDRVTVTRDTSTTTVYMELNSLRSEDTAVYYCARGGRAYSGSFDNWGQGTLVTVSS
VL: B2 VL with I2V, T7S, S24R, G28S, Q30V, K31H, L38F, G96A, W101R, R108K
B4: 03F03 (antibody, V domains shown)
VH: QVQLQESGPGLVKPSETLSLTCTVSGGSISSSSYYWGWIRQPPGKGLEWIGSIYYSGSTYYNPSLKSRVTISVDTSKNQFSLKLSSVTAADTAVYYCARSRPRPWAFDIWGQGTMVTVSS
VL: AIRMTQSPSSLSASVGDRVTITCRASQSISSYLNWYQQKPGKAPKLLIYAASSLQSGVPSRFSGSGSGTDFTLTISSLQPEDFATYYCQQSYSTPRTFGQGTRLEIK
B5: 11D10 (antibody, IgG4, V domains shown)
VH: EVKLLESGGGLVQPGGSLRLSCAVSGFTFSTSAMIWVRQAPGKGLEWVSFISGSTSNTYYADSVKGRFTISRDNSKNTLYLQMNGLTAEDTAVYYCARGTAAATWGQGALVTVSS
VL: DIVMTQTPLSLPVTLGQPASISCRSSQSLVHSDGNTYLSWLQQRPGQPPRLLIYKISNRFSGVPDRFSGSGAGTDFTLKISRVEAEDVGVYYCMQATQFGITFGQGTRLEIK
B6: 09D04 (antibody, IgG4, V domains shown)
VH: QVQLQQSGGGLVQPGGSLTLSCVGSGFDFRSYAMSWVRQAPGKGLEWVSGINNSGSKTYYADFVKGRFSVSRDNSKNIVWLRMRSLRAEDTAVYYCARRTFGPPHAWGQGTMVTVSS
VL: DVVMTQSPLSLPVTPGEPASISCRSSQSLLHSNGYTYLEWYLHKPGQSPQLLIYLGSNRASGVPDRFSGSGSGTDFTLKISRVEAEDVGVYYCMHSLHIPFTFGPGTKVDIK
B7: 05H03 (antibody, IgG4, V domains shown)
VH: B6 VH
VL: DIVMTQSPLSLSVTPGEPASISCRSSQSLLHSNGYKYLDWYLQKPGQSPQLLIYMGSNRASGVPDRFSGSGSGTDFTLKISRVEAEDVGVYYCMQGLQSPLTFGGGTKVEIE
B8: 05C02 (antibody, V domains shown)
VH: EVKLLESGGGVVQPGRSLRLSCAASGFTFKNFAMHWVRQAPGKGLEWVAVISYDGSSEDYADSVKGRFTLSRDNAKNSLYLQMNNLRAEDTAVYYCARGRRPDYWGQGTLVTVSS
VL: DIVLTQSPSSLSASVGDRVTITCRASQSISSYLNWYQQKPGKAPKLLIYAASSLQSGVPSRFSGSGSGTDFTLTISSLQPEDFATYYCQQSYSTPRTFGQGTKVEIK
B9: 09C10 (antibody, V domains shown)
VH: EVKLLESGGGLIQPGGSLRLSCAASGFTVSNNYVTWVRQAPGKGLELVSSIYSGGGTYYADSVKGRFTISRDNSKNTVYLQMNSLRADDTAVYYCARNVPVTNFGYWGQGTLVTVSS
VL: DIVMTQSPLSLPVTLGQPASISCRSSQSLVYRDGNTYLNWFQQRPGQSPRRLIYKVSNRDSGVPDRFSGSGSGTDFTLKISRVEAEDVGVYYCMQLTHWPPGFAQGTKLEIK
B10: 05E08 (antibody, IgG4, V domains shown)
VH: EVQLVQSGGGVVQPGRSLRLSCAASGFTFSTYAMHWVRQAPGKGLEWVAVISYDGSNKYYADSVKGRFTISRDNSRNTLFLQMNSLRDEDTAVYYCAKRGTMIRGERSLDFWGQGTLVTVSS
VL: AIQMTQSPSFLSASVGDRVTITCRASQGINSWLAWYQQKPGTAPNLLIHAASTLQSGVPSRFSGSRSGTEFTLTISSLQPEDFATYYCQQLQSYPLTFGQGTRLEIK
B11: 09A02 (antibody, IgG4, V domains shown)
VH: EVQLVQSGGGLVKPGGSLRLSCAASGFTFRTAWMSWVRQAPGKGLEWVGRMKSKNDGGTTDYAAPVKGRFTISRDDSRDTVYLQMNSLKTEDTGVYYCATYAAGATVPWGQGTLVTVSS
VL: DIVMTQTPLSAPVTLGQPASISCRSSRSLLQRNGYNYVDWYQQKAGNPPRLLIYLGSRRASGVPDRFSGSGSDKDFTLKISRVEADDVGFYFCKQSLQAPPTFGGGTKIEIT
B12: 06A07 (antibody, IgG4, V domains shown)
VH: QVQLVQSGPELKNPGASVKVSCKASGYSFTNFYINWVRQAPGRGLEWVGWISPNNGNTHYARNLQGRVTMTTDTSTNTAYLELKNLRSDDTAIYFCGRSVSMGYWGQGTLVTVSS
VL: LPVLTQPPSVSKGLRQTATLTCTGNSKNVGNQGAAWLQQHQGQPPKLLSYRNNNRPSGISERFSASRSGNTASLTITGLQPEDEADYYCSAWDSSLSAQVFGGGTKLTVL
B13: 05A11 (antibody, IgG4, V domains shown)
VH: EVKLLESGGGVVQPGRSLRLSCAASGFSFSAYGMHWVRQAPGKGLEWVSSISGSGDGTYYADSVKGRFTISRDNSKNTLYLQMNSLRAEDAAVYYCAKSVKGRGYFFDYWGQGTLVTVSS
VL: DIVLTQSPSSLSASVGDRVTITCRASQSISSYLNWYQQKPGKAPKLLIYAASSLQSGVPSRFSGSGSGTDFTLSISNLQPEDFATYYCQQAYKFPRSFGGGTKVEFK

Molecular target: T1, Scrambled Y42,52,63(SO3) PSGL-1(42-62) …
Assay: ELISA, immobilized biotin peptide
Outline: (§1)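 In this ELISA, half-well high binding plates (Corning Cat. #3690) received 3 ug/mL/25 ul per well of biotin-tagged PSGL-1 peptides covering residues 42 to 62, diluted in PBS, pH 7.4, and coated overnight at 4° C. Duplicate readings for each antibody were averaged and the average assay background was subtracted. PSGL-1 protein or peptide was the positive control.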

| binding result | A450nm, 20 nM mAb [A450nm] | Binder |
| --- | --- | --- |
| no binding (tested: 20 nM) | – | B1 |
| no binding (tested: 20 nM) | – | B2 |
| no binding (tested: 20 nM) | 0.01 | B3 |
| no binding (tested: 20 nM) | 0.03 | B4 |
| no binding (tested: 20 nM) | – | B5 |
| no binding (tested: 20 nM) | 0.05 | B6 |
| no binding (tested: 20 nM) | 0.04 | B7 |
| no binding (tested: 20 nM) | – | B8 |
| – | 0.21 | B9 |
| no binding (tested: 20 nM) | 0.01 | B10 |
| no binding (tested: 20 nM) | 0.03 | B11 |
| no binding (tested: 20 nM) | 0.02 | B12 |
| no binding (tested: 20 nM) | – | B13 |

Molecular target: T2, Biotin PSGL-1(42-62) peptide, unmodified
Assay: ELISA, immobilized biotin peptide
Outline: as §1

| A450nm, 20 nM mAb [A450nm] | EC50 [nM] | Binder |
| --- | --- | --- |
| 0.07 | – | B1 |
| – | > 500 | B2 |
| – | > 500 | B3 |
| – | > 500 | B4 |
| – | 0.51 | B5 |
| – | ~0.05 | B6 |
| – | ~0.02 | B7 |
| – | 3 | B8 |
| 0.2 | – | B9 |
| – | > 500 | B10 |
| – | ~500 | B11 |
| – | 7.2 | B12 |
| – | ~500 | B13 |

Molecular target: T3, Biotin Y46,48,51(SO3) PSGL-1(42-62) …
Assay: ELISA, immobilized biotin peptide
Outline: as §1

| A450nm, 20 nM mAb [A450nm] | EC50 [nM] | Binder |
| --- | --- | --- |
| 2.64 | – | B1 |
| 2.43 | 0.1 | B2 |
| 2.77 | 0.15 | B3 |
| 2.54 | 0.08 | B4 |
| 2.52 | 0.65 | B5 |
| 2.63 | 0.07 | B6 |
| 2.77 | ~0.02 | B7 |
| 2.8 | ~0.01 | B8 |
| 2.77 | – | B9 |
| 2.57 | ~0.01 | B10 |
| 2.82 | 0.51 | B11 |
| 2.7 | ~0.02 | B12 |
| 2.52 | ~0.025 | B13 |

molecular target: T4, Cynomolgus PSGL-1(ECD)-hFc1 (cynomolgus macaque); assay: ELISA, 20 nM mAb on plate cyno PSGL-1(ECD)-Fc
T4 construct: also called Cyno PSGL1-Fc; Cyno PSGL-1(ECD)-Fc
Protocol: Antibody binding to plate-immobilized cyno PSGL-1(ECD) was determined either at one concentration (20 nM) or by generating full antibody binding curves (0.003-200 nM). A typical ELISA was performed by overnight coating at 4° C. with 3 ug/mL/25 ul per well of recombinant cyno PSGL-1(ECD) protein in PBS, pH 7.4, in high binding half-well plates (Corning Cat. #3690). […] Anti-PSGL-1 IgG in assay buffer (blocking buffer containing 0.05% tween 20) was added into test and control wells (20 nM/25 ul/well) and the plate incubated for 45 min at 37° C. […] The plate was incubated for 45 min at 37° C., and mAb bound to plate-immobilized target determined at A450 nm using HRP substrate (3,3′,5,5′-tetramethylbenzidine (TMB)). For each antibody, duplicate values were averaged and assay background subtracted.

| A450nm [A450 nm] | Binder |
| --- | --- |
| 0.55 | B1 |
| 1.18 | B2 |
| 0.38 | B3 |
| 0.58 | B4 |
| 1.4 | B5 |
| 1.93 | B6 |
| 2.01 | B7 |
| 0.64 | B8 |
| 1.17 | B9 |
| 0.77 | B10 |
| 0.73 | B11 |
| 1.27 | B12 |
| 0.7 | B13 |
